From patent US20090137493A1, “Inhibition of tumor metastases using protein kinase C (PKC) inhibitors” (priority 2007, published 2009)
Bridges are numbered along the chain shown (N, C = ends). Where no end group is shown, it is not given here.

Tests used:
4T1 tumor cells = assay: Growth rate of 4T1 tumor cells in vitro; assay type: cell-based, mouse; conditions: doses of 0, 1, 5 and 10 μM, compared to TAT carrier peptide control
Experimental: FIGS. 6B-6C are bar graphs showing the affect of the αV5-3-TAT peptide on growth rate of JC tumor cells (FIG. 6B) and 4T1 tumor cells (FIG. 6C) in vitro. The cells treated with the TAT carrier peptide (TAT) or with αV5-3-TAT peptide (PKC alpha inhibitor), at doses of 0, 1, 5, and 10 μM.
To determine if the effects observed with the α and βIIPKC peptide inhibitors was due to a decrease in metastasis as opposed to a decrease in primary tumor growth, animals injected with 4T1 tumor cells were treated with saline, the αV5-3-TAT conjugate peptide (αPKC), or the βIIV5-3-TAT conjugate peptide (βPKC) and the number of tumors cells at the primary site of injection were determined.

CXCR4 chemokine receptor = assay: CXCR4 expression on the surface of tumor cells from treated animals; assay type: in vivo; conditions: cells from primary tumors of treated animals, versus TAT, FIG. 10B
Text: FIG. 10B is a bar graph showing the relative expression levels of CXCR4 chemokine receptor on the surface of tumor cells from animals treated with the TAT carrier peptide (TAT) or the αV5-3-TAT peptide (Alpha inhibitor).
Cells from primary tumors in animals treated with the αPKC inhibitor were also isolated and assayed for levels of CXCR4 (FIG. 10B) and levels of matrix metalloproteinase 2 (MMP2) activity (FIG. 10C).

[1] = Blood cell numbers (white blood cells, lymphocytes, neutrophils) in treated animals; assay type: in vivo
Text: (§1) FIGS. 11A-11B are bar graphs showing the relative serum levels of liver enzymes aspartate transaminase (AST; FIG. 11A) and alanine transaminase (ALT; FIG. 11B) in animals treated with saline or TAT (untreated) or the αV5-3-TAT peptide (aV5-3). FIGS. 11C-11E are bar graphs showing the relative serum levels of white blood cells (FIG. 11C), lymphocytes (FIG. 11D), and neutrophils (FIG. 11E).
Rather, the numbers of white blood cells (FIG. 11C), lymphocytes (FIG. 11D), and neutrophils (FIG. 11E) were all increased in αV5-3 treated animals compared to control (TAT) treated animals.

[2] = Serum levels of liver enzymes AST and ALT in treated animals; assay type: in vivo
Text: as §1

[3] = test system: 4T1 murine mammary cancer cells; assay: Lung metastasis of luciferase-tagged 4T1 tumors in mice, imaging (relative light units); assay type: in vivo; conditions: 4T1-luciferase tumor-bearing mice, osmotic pump, about 35 mg/kg/day, four weeks
Experimental: To determine whether specific PKC inhibitors could reduce the amount of PKC translocation/activation in vivo and thereby reduce tumor cell metastasis, animals were administered an αPKC peptide inhibitor, or appropriate control, via an implanted osmotic pump, following the injection of luciferase-tagged tumor cells. […] The data are summarized in the bar graph shown in FIG. 4, along with similar data relating to the use of a βIIV5-3-TAT conjugate peptide (βPKC; SEQ ID NO: 27). The extent of lung metastasis is expressed as relative light units.
Balb/c female mice (6 weeks old) were injected semi-orthotopically with 4T1 murine mammary cancer cells tagged with luciferase ([…] cells/100 μL). One week later, an osmotic minipump was implanted subcutaneously in each animal, for delivery of saline (control), TAT peptide (control, YGRKKRRQRRR, SEQ ID NO: 25), the peptide inhibitor αV5-3 (QLVIAN, SEQ ID NO: 6) attached via an N-terminal disulfide bond to TAT peptide (YGRKKRRQRRR-CC-QLVIAN, SEQ ID NO: 26).
In other experiments, the peptide inhibitor βIIV5-3 (QEVIAN, SEQ ID NO: 13) or εV1-2 (EAVSLKPT, SEQ ID NO: 20) is attached via an N-terminal disulfide bond to the TAT peptide (SEQ ID NOs: 27 and 28, respectively). The TAT control, αV5-3-TAT, βIIV5-3-TAT, or εV1-2-TAT conjugate peptides are administered at about 35 mg/kg/day for two and four weeks.
After two weeks of treatment with αV5-3-TAT, some animals were selected form imaging (IVIS® 29, Xenogen Corporation, Alameda, Calif.) and analysis, with the remaining animals imaged after four weeks of treatment.
FIG. 4 is a bar graph showing the extent of lung metastasis, expressed as relative light units (based on imaging as exemplified in FIG. 3), in tumor-bearing mice treated for four weeks with saline, the αV5-3-TAT conjugate peptide (αPKC), or the βIIV5-3-TAT conjugate peptide (βPKC). The extent of lung metastasis, quantified approximately by the relative light units, for mice treated with saline, the αPKC inhibitor, and the βIIV5-3 PKC inhibitor peptide is shown. The extent of lung metastases is reduced in the animals treated with the αPKC inhibitor.

αPKC = biological target: T1, αPKC (Mus musculus, UniProt P20444); assay: Translocation of αPKC in tumor cells (immunoblot of cytosol and particulate fractions); assay type: in vivo; conditions: FIG. 5A
T1 construct: endogenous in cells; host or cells: 4T1 murine mammary tumour cells grown as tumours in Balb/c mice
Experimental: FIGS. 5A-5B are bar graphs showing the percentage of translocation of αPKC (FIG. 5A) and βIIPKC (FIG. 5B) […] in tumor cells treated with αV5-3-TAT peptide.
To further characterize inhibition of metastasis using the α and βIIPKC inhibitors, the percentage of translocation of αPKC (FIG. 5A) and βIIPKC (FIG. 5B), […] was measured.

JC cells = assay: Wound healing (migration) assay, JC; assay type: cell-based, mouse; conditions: peptide 1 uM, re-applied every 2 h for 8 h
Experimental: FIGS. 15A-15D are micrographs showing the efficacy of TAT carrier peptide (TAT; FIG. 15A), αV5-3-TAT peptide (Alpha; FIG. 15B), βIIV5-3 peptide (Beta2; FIG. 15C), and εV1-2 (Epsilon; FIG. 15D) on JC cell migration.
To investigate the role of PKC inhibitors in reducing the migration of tumor cells, in vitro migration assays were performed using MDA-MB-231 breast cancer cells (FIGS. 12A-12D), MCF-7 breast cancer cell (FIGS. 13A-13D), JC cells (FIGS. 15A-15D), and 4T1 cells (FIGS. 16A-16D), in the presence of TAT carrier peptide (TAT), αV5-3-TAT peptide (Alpha), βIIV5-3 peptide (Beta2), or εV1-2 peptide (Epsilon).
Wound healing assay: Human or mouse breast cancer cell lines were grown in 6-well plates until about 90% confluent. Cells were then grown in serum free media overnight, before media was changed to media +1% FBS and peptide PKC inhibitors added (1 uM), at the same time a pipette tip was drawn across the cell layer to create a scrape ‘wound’. PKC inhibitors were re-applied every 2 h for a total of 8 h, before cells were left for a further 12 h and then the scrape was examined under phase contrast microscopy.

YGRKKRRQRRR-CC-QLVIAN (YGRKKRRQRRRCCQLVIAN; disulfide 12-13 (inferred)) [αV5-3-TAT]
inhibition of growth of 4T1 tumor cells in vitro (4T1 tumor cells): does not substantially inhibit
decrease of relative expression levels of CXCR4 chemokine receptor on the surface of tumor cells (CXCR4 chemokine receptor): 4-5 fold
numbers of white blood cells ([1]; compared to control (TAT) treated animals, FIG. 11C): increased
numbers of lymphocytes ([1]; compared to control (TAT) treated animals, FIG. 11D): increased
numbers of neutrophils ([1]; compared to control (TAT) treated animals, FIG. 11E): increased
signs of immunosuppression ([1]; treated animals, FIGS. 11C-11E): no signs of immunosuppression
decrease of relative serum level of aspartate transaminase (AST) ([2]; treated animals versus saline or TAT, FIG. 11A): about 5 fold
decrease of relative serum level of alanine transaminase (ALT) ([2]; treated animals versus saline or TAT, FIG. 11B): 4-5 fold
serum AST/ALT levels (marker of damage or toxicity of the liver) ([2]; tumor-bearing treated animals): reversed abnormally elevated level of serum AST/ALT levels (a marker of damage or toxicity of the liver) to the normal range
effect on lung metastasis compared to control animals (in words) [3]: reduced
reduction of lung metastasis compared to control animals [3]: 4 to 5 fold
reduction of αPKC translocation (αPKC): about 40%
migration of JC cells (JC cells): reduced
